The labels stand for the following.
B1: C18DA-gGlu3-Sar12-AEPipAc-Tyr-Phe-NMeLeu-Nle-Arg-NMeAla-Arg-Gly-NH2 (peptide)
peptide: EEEXXXXXXXXXXXXXYFLXRARG
HELM: PEPTIDE1{[O=C(O)CCCCCCCCCCCCCCCCC(=O)[*:2]].[gGlu].[gGlu].[gGlu].[Sar].[Sar].[Sar].[Sar].[Sar].[Sar].[Sar].[Sar].[Sar].[Sar].[Sar].[Sar].[O=C(CN1CCN(CCN[*:1])CC1)[*:2]].Y.F.[meL].[Nle].R.[meA].R.G.[am]}$$$$V2.0
SMILES: CCCC[C@H](NC(=O)[C@H](CC(C)C)N(C)C(=O)[C@H](Cc1ccccc1)NC(=O)[C@H](Cc1ccc(O)cc1)NC(=O)CN1CCN(CCNC(=O)CN(C)C(=O)CN(C)C(=O)CN(C)C(=O)CN(C)C(=O)CN(C)C(=O)CN(C)C(=O)CN(C)C(=O)CN(C)C(=O)CN(C)C(=O)CN(C)C(=O)CN(C)C(=O)CN(C)C(=O)CC[C@H](NC(=O)CC[C@H](NC(=O)CC[C@H](NC(=O)CCCCCCCCCCCCCCCCC(=O)O)C(=O)O)C(=O)O)C(=O)O)CC1)C(=O)N[C@@H](CCCNC(=N)N)C(=O)N(C)[C@@H](C)C(=O)N[C@@H](CCCNC(=N)N)C(=O)NCC(N)=O
B2: C18DA-gGlu3-Sar15-AEPipAc-Tyr-Phe-NMeLeu-Nle-Dbu-NMeAla-Arg-Gly-NH2 (peptide)
peptide: EEEXXXXXXXXXXXXXXXXYFLXXARG
HELM: PEPTIDE1{[O=C(O)CCCCCCCCCCCCCCCCC(=O)[*:2]].[gGlu].[gGlu].[gGlu].[Sar].[Sar].[Sar].[Sar].[Sar].[Sar].[Sar].[Sar].[Sar].[Sar].[Sar].[Sar].[Sar].[Sar].[Sar].[O=C(CN1CCN(CCN[*:1])CC1)[*:2]].Y.F.[meL].[Nle].[Dab].[meA].R.G.[am]}$$$$V2.0
SMILES: CCCC[C@H](NC(=O)[C@H](CC(C)C)N(C)C(=O)[C@H](Cc1ccccc1)NC(=O)[C@H](Cc1ccc(O)cc1)NC(=O)CN1CCN(CCNC(=O)CN(C)C(=O)CN(C)C(=O)CN(C)C(=O)CN(C)C(=O)CN(C)C(=O)CN(C)C(=O)CN(C)C(=O)CN(C)C(=O)CN(C)C(=O)CN(C)C(=O)CN(C)C(=O)CN(C)C(=O)CN(C)C(=O)CN(C)C(=O)CN(C)C(=O)CC[C@H](NC(=O)CC[C@H](NC(=O)CC[C@H](NC(=O)CCCCCCCCCCCCCCCCC(=O)O)C(=O)O)C(=O)O)C(=O)O)CC1)C(=O)N[C@@H](CCN)C(=O)N(C)[C@@H](C)C(=O)N[C@@H](CCCNC(=N)N)C(=O)NCC(N)=O
B3: C18DA-gGlu3-Sar15-AEPipAc-Tyr-Phe-NMeLeu-Nle-Orn-Pro-Arg-Gly-NH2 (peptide)
peptide: EEEXXXXXXXXXXXXXXXXYFLXXPRG
HELM: PEPTIDE1{[O=C(O)CCCCCCCCCCCCCCCCC(=O)[*:2]].[gGlu].[gGlu].[gGlu].[Sar].[Sar].[Sar].[Sar].[Sar].[Sar].[Sar].[Sar].[Sar].[Sar].[Sar].[Sar].[Sar].[Sar].[Sar].[O=C(CN1CCN(CCN[*:1])CC1)[*:2]].Y.F.[meL].[Nle].[Orn].P.R.G.[am]}$$$$V2.0
SMILES: CCCC[C@H](NC(=O)[C@H](CC(C)C)N(C)C(=O)[C@H](Cc1ccccc1)NC(=O)[C@H](Cc1ccc(O)cc1)NC(=O)CN1CCN(CCNC(=O)CN(C)C(=O)CN(C)C(=O)CN(C)C(=O)CN(C)C(=O)CN(C)C(=O)CN(C)C(=O)CN(C)C(=O)CN(C)C(=O)CN(C)C(=O)CN(C)C(=O)CN(C)C(=O)CN(C)C(=O)CN(C)C(=O)CN(C)C(=O)CN(C)C(=O)CC[C@H](NC(=O)CC[C@H](NC(=O)CC[C@H](NC(=O)CCCCCCCCCCCCCCCCC(=O)O)C(=O)O)C(=O)O)C(=O)O)CC1)C(=O)N[C@@H](CCCN)C(=O)N1CCC[C@H]1C(=O)N[C@@H](CCCNC(=N)N)C(=O)NCC(N)=O
B4: C18DA-gGlu3-Sar15-AEPipAc-Tyr-Phe-NMeLeu-Nle-Orn-NMeAla-Arg-Gly-NH2 (peptide)
peptide: EEEXXXXXXXXXXXXXXXXYFLXXARG
HELM: PEPTIDE1{[O=C(O)CCCCCCCCCCCCCCCCC(=O)[*:2]].[gGlu].[gGlu].[gGlu].[Sar].[Sar].[Sar].[Sar].[Sar].[Sar].[Sar].[Sar].[Sar].[Sar].[Sar].[Sar].[Sar].[Sar].[Sar].[O=C(CN1CCN(CCN[*:1])CC1)[*:2]].Y.F.[meL].[Nle].[Orn].[meA].R.G.[am]}$$$$V2.0
SMILES: CCCC[C@H](NC(=O)[C@H](CC(C)C)N(C)C(=O)[C@H](Cc1ccccc1)NC(=O)[C@H](Cc1ccc(O)cc1)NC(=O)CN1CCN(CCNC(=O)CN(C)C(=O)CN(C)C(=O)CN(C)C(=O)CN(C)C(=O)CN(C)C(=O)CN(C)C(=O)CN(C)C(=O)CN(C)C(=O)CN(C)C(=O)CN(C)C(=O)CN(C)C(=O)CN(C)C(=O)CN(C)C(=O)CN(C)C(=O)CN(C)C(=O)CC[C@H](NC(=O)CC[C@H](NC(=O)CC[C@H](NC(=O)CCCCCCCCCCCCCCCCC(=O)O)C(=O)O)C(=O)O)C(=O)O)CC1)C(=O)N[C@@H](CCCN)C(=O)N(C)[C@@H](C)C(=O)N[C@@H](CCCNC(=N)N)C(=O)NCC(N)=O
B5: C18DA-gGlu3-Sar12-AEPipAc-Tyr-Phe-NMeLeu-Nle-Orn-NMeAla-Arg-Gly-NH2 (peptide)
peptide: EEEXXXXXXXXXXXXXYFLXXARG
HELM: PEPTIDE1{[O=C(O)CCCCCCCCCCCCCCCCC(=O)[*:2]].[gGlu].[gGlu].[gGlu].[Sar].[Sar].[Sar].[Sar].[Sar].[Sar].[Sar].[Sar].[Sar].[Sar].[Sar].[Sar].[O=C(CN1CCN(CCN[*:1])CC1)[*:2]].Y.F.[meL].[Nle].[Orn].[meA].R.G.[am]}$$$$V2.0
SMILES: CCCC[C@H](NC(=O)[C@H](CC(C)C)N(C)C(=O)[C@H](Cc1ccccc1)NC(=O)[C@H](Cc1ccc(O)cc1)NC(=O)CN1CCN(CCNC(=O)CN(C)C(=O)CN(C)C(=O)CN(C)C(=O)CN(C)C(=O)CN(C)C(=O)CN(C)C(=O)CN(C)C(=O)CN(C)C(=O)CN(C)C(=O)CN(C)C(=O)CN(C)C(=O)CN(C)C(=O)CC[C@H](NC(=O)CC[C@H](NC(=O)CC[C@H](NC(=O)CCCCCCCCCCCCCCCCC(=O)O)C(=O)O)C(=O)O)C(=O)O)CC1)C(=O)N[C@@H](CCCN)C(=O)N(C)[C@@H](C)C(=O)N[C@@H](CCCNC(=N)N)C(=O)NCC(N)=O
B6: C18DA-gGlu3-Sar15-AEPipAc-Tyr-Phe-NMeLeu-Nle-Arg-NMeAla-Arg-Gly-NH2 (peptide)
peptide: EEEXXXXXXXXXXXXXXXXYFLXRARG
HELM: PEPTIDE1{[O=C(O)CCCCCCCCCCCCCCCCC(=O)[*:2]].[gGlu].[gGlu].[gGlu].[Sar].[Sar].[Sar].[Sar].[Sar].[Sar].[Sar].[Sar].[Sar].[Sar].[Sar].[Sar].[Sar].[Sar].[Sar].[O=C(CN1CCN(CCN[*:1])CC1)[*:2]].Y.F.[meL].[Nle].R.[meA].R.G.[am]}$$$$V2.0
SMILES: CCCC[C@H](NC(=O)[C@H](CC(C)C)N(C)C(=O)[C@H](Cc1ccccc1)NC(=O)[C@H](Cc1ccc(O)cc1)NC(=O)CN1CCN(CCNC(=O)CN(C)C(=O)CN(C)C(=O)CN(C)C(=O)CN(C)C(=O)CN(C)C(=O)CN(C)C(=O)CN(C)C(=O)CN(C)C(=O)CN(C)C(=O)CN(C)C(=O)CN(C)C(=O)CN(C)C(=O)CN(C)C(=O)CN(C)C(=O)CN(C)C(=O)CC[C@H](NC(=O)CC[C@H](NC(=O)CC[C@H](NC(=O)CCCCCCCCCCCCCCCCC(=O)O)C(=O)O)C(=O)O)C(=O)O)CC1)C(=O)N[C@@H](CCCNC(=N)N)C(=O)N(C)[C@@H](C)C(=O)N[C@@H](CCCNC(=N)N)C(=O)NCC(N)=O

The assay has as its target T1, human neuromedin U receptor 1 (human, UniProt Q9HB89 24-426).
T1 sequence (looked up): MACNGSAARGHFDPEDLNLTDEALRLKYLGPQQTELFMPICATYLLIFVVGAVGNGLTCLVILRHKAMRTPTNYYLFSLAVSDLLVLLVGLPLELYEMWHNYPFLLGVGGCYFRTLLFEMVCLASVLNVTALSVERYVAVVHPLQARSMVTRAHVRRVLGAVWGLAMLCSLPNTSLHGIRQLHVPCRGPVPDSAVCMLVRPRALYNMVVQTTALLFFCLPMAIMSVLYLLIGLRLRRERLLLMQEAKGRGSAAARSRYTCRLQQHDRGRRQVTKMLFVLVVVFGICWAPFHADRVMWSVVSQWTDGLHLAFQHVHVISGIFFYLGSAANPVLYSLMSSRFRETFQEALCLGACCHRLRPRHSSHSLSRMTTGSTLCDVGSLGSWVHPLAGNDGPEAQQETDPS
As to the kind of experiment: cell-based or functional assay.
In the case of B1, the EC50 (hNMUR1) buffer came to 1 µM.

B2: the EC50 (hNMUR1) buffer is more than 1 µM.

For B3, the EC50 (hNMUR1) buffer was more than 1 µM. Next, B4: more than 1 µM; B5: more than 1 µM. In the case of B6 it was 1.1 µM.

The values above are taken from US20240279278A1, “NMU RECEPTOR 2 AGONISTS” (Boehringer Ingelheim International GmbH, priority 2023, published 2024).
